Experimental findings from a protein production outcome set (Wang et al. 2014) are described below.

The data set is described as follows: label from the status in PepcDB records.
Take “FFSNAEVAERLAYPQLIEALRIGLAKPCSAPLRNCHALPAQASLLQMPVWQAGAGIGVKLVTVFPGNGARGLPAVAAVFALFDGEDGRPLALLEASELTARRTACSSALAADYLARDDARRLLVVGCGTLAAHMVRAHACVRDYRHIDIWGRDPAKAAALAARLREEGYPARAADGLRAAVEAADCVSCVTTSREALVRGAWLKPGVHLDLVGAFLPSMRETDVLAVARARVVVDTRAGALEEAGDLLQAIAEGAIGREAISTELRDLLSGAGRRGDPGEITLFKSVGYALEDLVAARRVV”: the protein production result is reported as “failed”.
Next, “VSKAVQYMAKRRIGALIVFEKETGLQDYIETGIAMDSNISQELLINVFIPNTPLHDGAMIIQGTKIAAAASYLPLSDSPKISKSLGTRHRAAVGISEVSDAFTVIVSEETGDISVTFDGKLRRDISNEIFEELLAEHWFGTRFQKKGVK”: “failed”; “MLSSVFQVLGGLALFLLAMEMMTNGLKNAAGHHLRHMLGHWTRTPLRALFAGFVITGIVQHSGAVTVATIGFVNAGLMTLAQSLGVVFGSNIGTTMTGWLVSLIGFGFKIEAMALPLLAAGVGFKLVSRNPRNQFLGEALAGFALFFLGLSILKTALESSALGFQNGHLINADYGLPAFMLIGLLATVLTQSSSAALAIVLTAAAGGLIPLDNAAAAVIGANLGSTSTAALSALKATANARRLATGHILFNLVTGVIALLVLPAMLWLVNTLTNLLDLEANPAVSLALFHTLFNVLGAAIMLPFTQPFARFLGRLFRSKEEDNAEPRYLDDTLVTTPELAIGAVDQEMKRLIGHSRGLLRVCLDRESLEESDVRPKADAVRNLNLAITDYIGRLRAEKMHPSVVDALTLSIRTCRYLAEATELTLHLVRLRALARRTDFETLESVFNRYFEVIRALVASETPVPEQLQEAETVYHQLKAATLQKMIRREFSSSLGAQVLDELSAVRRLTDQWSKALYWQDGVGLLNQSHDQASAS”: “failed”.
“MIPPYREHPLREVLINELHARPSETIEAPVRLSHLAVLTGEITDPSLDHLGLLCARMGETVPAKGATRFNANLGGLGLQFERHTEFCTYTFQRRGRTGDLPFDQPALDMVPPDWLATLPGQVLSAVHLVVEPKDTPEYSIEELSIRHFAGNPVVGSAVGGGAAFAYSDLRLHDDRCLRMLIRDVDLNPRHAGRLVQRLLELNTYRALALLALPMARESSPGLRRIDMVLAHVAARMADPNGVDSDAELLSELSNLTAEVESLAAANSYRIAATRAYHALVQRRLEELREVRLDGVVTFGAFMDRRLTPAMATVDSVSERIESLSERGARVASLLRARVEVDLQAQNKRLLESMNRRARIQLRLQEAVEGLSVVAISYYLVGLVGYMAKGVSGAGVEVKESVVTAIAVPVIVASVWLVLRRAKRAMLNRAD”: the protein production result was “failed”.
Next, “MADKIKVSLLGSTGMVGQKMVKMLAKHPYLELVKVSASPSKIGKKYKDAVKWIEQGDIPEEVQDLPIVSTNYEDHKDVDVVLSALPNELAESIELELVKNGKIVVSNASPFRMDPDVPLINPEINWEHLELLKFQKERKGWKGILVKNPNCTAAIMSMPIKPLIEIATKSKIIITTLQAVSGAGYNGISFMAIEGNIIPYIKGEEDKIAKELTKLNGKLENNQIIPANLDSTVTSIRVPTRVGHMGVINIVTNERINIEEIKKTLKNFKSLPQQKNLPTAPKQPIIVRDEEDRPQPIIDVNAESGMAVTVGRIRHENNVLRLVVLGDNLVRGAAGITILTVEVMKELGYI”: “not failed”; “MTAEDGAAYIAFLADPQPSAQWVGRRGTPRDRHDWRPFEGPLSPASIRHARKILSTLYGCLIEQGHARANPFEVLSLPTGGDAPRIQVARSFTEPQWRFLLRHVSSLPADDPRAARLTFMLHLAHASGLRISEQAVATVGHLTWSGHWTLAVPGPKPRQIPLPEAVIDALRGHLAARGLGRGFESLPAATPLIGRVKTGDEGDALSVAQIGAIWKRYFAQAATLAGGEDDAAQLAQASAHWMRHTAGAHAVARGVALEVVQQQLGHASLDTTSMYVLAA”: “failed”.
For the sequence “ESELACVIALQDITLRVQETERLEKMLEHLPVCMVIMNQNDEVEQINQTGIELLGFERDEIVGNPVDLFIPQEQVESHKALLKKFFQEETVIDTRSLERDFKVKHKSGKLIEIQAVYTPVHFHN”, the protein production entry was “failed”.
In the case of “MTADLFDGLDDAPRRQDIAPGAALLSGFARANERELLAAIDAVVARAPFRHMMTPGGHTMSVAMTSCGSVGWVTDRRGYRYSPNDPDSATPWPKMPAVLRDLAQRAAADVGFAGFDPDACLINRYVPGAKMALHQDKDEADFSAPIVSVSLGLPAIFQFGGMARSDKPRRYELRHGDVLVWGGPSRLVYHGVLTLKDGEHPLLGRQRINLTFRKAL”, the protein production result is given as “failed”.
Next, “MHFRDTSERQSDAVNESSLDSVHLQMIKGMLYQQRQDFSSQDSVSRKKVLSLNLKQTSKTEEIKNVLGGSTCYNYSVKDLQEISGSELCFPSGQKIKSAYLPQRQIHIPAVFQSPAHYKQTFTSCLIEHLNILLFGLAQNLQKALSKVDISFYTSLKGEKLKNAENNVPSCHHSQPAKLVMVKKEGPNKGRLFYTCDGPKADRCKFFKWLEDVTPGYSTQEGARPGMVLSDIKSIGLYLRSQKIPLYEECQLLVRKGFDFQRKQYGKLKKFTTVNPEFYNEPKTKLYLKLSRKERSSAYSKNDLWVVSKTLDFELDTFIACSAFFGPSSINEIEILPLKGYFPSNWPTNMVVHALLVCNASTELTTLKNIQDYFNPATLPLTQYLLTTSSPTIVSNKRVSKRKFIPPAFTNVSTKFELLSLGATLKLASELIQVHKLNKDQATALIQIAQMMASHESIEEVKELQTHTFPITIIHGVFGAGKSYLLAVVILFFVQLFEKSEAPTIGNARPWKLLISSSTNVAVDRVLLGLLSLGFENFIRVGSVRKIAKPILPYSLHAGSENESEQLKELHALMKEDLTPTERVYVRKSIEQHKLGTNRTLLKQVRVVGVTCAACPFPCMNDLKFPVVVLDECSQITEPASLLPIARFECEKLILVGDPKQLPPTIQGSDAAHENGLEQTLFDRLCLMGHKPILLRTQYRCHPAISAIANDLFYKGALMNGVTEIERSPLLEWLPTLCFYNVKGLEQIERDNSFHNVAEATFTLKLIQSLIASGIAGSMIGVITLYKSQMYKLCHLLSAVDFHHPDIKTVQVSTVDAFQGAEKEIIILSCVRTRQVGFIDSEKRMNVALTRGKRHLLIVGNLACLRKNQLWGRVIQHCEGREDGLQHANQYEPQLNHLLKDYFEKQVEEKQKKKSEKEKSKDKSHS”: “failed”; “MMGSVELNLRETELCLGLPGGDTVAPVTGNKRGFSETVDLKLNLNNEPANKEGSTTHDVVTFDSKEKSACPKDPAKPPAKAQVVGWPPVRSYRKNVMVSCQKSSGGPEAAAFVKVSMDGAPYLRKIDLRMYKSYDELSNALSNMFSSFTMGKHGGEEGMIDFMNERKLMDLVNSWDYVPSYEDKDGDWMLVGDVPWPMFVDTCKRLRLMKGSDAIGLAPRAMEKCKSRA”: “failed”; “MMRAKVNQGINLNDYNGVWVIGEQREGKINPVTIELIGEGRKLADQLGKELAVVIAGYEVEKEVKELLHYSVDKVYYINDPLLKDFTTDGYAISIANLIERKKPEVVLVGATSIGRDIAPRIAGKVGTGLTADCTKLEIDSTDNKLLQTRPAFGGNLMATIVCPKNRPQMSTVRPGVMAKAVRNESETGILEVVTPELTEKMIRTRLVEIL”: “failed”.
With “MRAAVRTRIVATYLAVAALWGSTWMAIRIGLEDLPPLRFAGVRMAIAALVLAPFALRGGAWREVVGPARAQLALVAVLQIALPYGLMFVAQQWVPSGLAAVLFASFPVWIALLARALVPGETLTPARVASALLGIAGVAVLQLPHLGDLEGSGRLLLGGALVVLSSMIVALANVLVRRHLAAVSPLAMTAGQTAVGAVLLLAAAALLEQGRPAAFTASAVAALAWLAVFGTALTYVGLYWLVPRVPMAAIGALPLLDTSVAVTLGALVLHEPVGWNLALGGGMVLAAAALTIPRRR”, the protein production entry is reported as “failed”.
On to “MAQQFKDYFSEKSDVYRSYRPGYPTELFAWLAGLPARRDAALDCGCGTGQASVALAEHFARVYAVDPSAGQIKSATPHKRVEYRVAPAEETGLPDASVDLVIAAQALHWFDFSRFYAEVRRVARGGAVFAAFTYGLLAIDDEIDRIIGRFYRDVIGPYWPPERAHVDAGYRTLPFPFAEIETPTFAMKAEWDLGHLMGYFETWSAVKEYRRLRGDDPLELVAGDLATAWGDPALVRQVSWPLVLRAGRIE”, for which the protein production result is listed as “failed”.
Take “MEKYSQVIFDKNTVEFVTVAAEFCGFLERARDMKRYDFVDTALKILPLLYLKATLLPPCEPIGEDEPETFVTEEDYELIRRAIAGVLGAKDDYLEVFLPDMVYSDTPIKKCISEDLADIYQDLKDFISVFQLGLNETMNDSLVVCKEHFREFWGQRLVNTMRALHDVKYSPLEHHHHHH”: the protein production entry is reported as “not failed”.
As for “GDETGVMDSLLEALQSGAAFRRKRGPRQANRKAGCAVTSLLASELTKDDAMAAVPAKVSKNSETFPTILEEAKELVGRAS”, the protein production entry is “failed”.
Consider “QKSVRVGISFDISEQKEGEALFEIISQNVTDVIWVYDLKLNRFRYISPSVEAMRGLPKEEAEAMSLEETLTPSSYQRAMQILEGERLRLSNPSHREIKIFSEFFDQYTHDGEVIETEVTARVVQDEG”, for which the protein production entry is “failed”.
Regarding “MTRKQMKTLVNRLFIISTFLLTSVQSYANFIDISEQQINQYLATKLTEKFRMQDQIGIPGLFQLNYHLHNLTTQIGRTDANKVSLSGIIDGVLLLKGKSYDAQLNLNIDTTPYYDTKTGKLYLKDIRLLNYSASPEKYQDKLQAFLPLLVDGLSKMLNNTPIYTLDENKTQEALLKKFGKAIVIEQGKLSLQTALF”, the protein production entry is on record as “failed”.
As for “MNRSVRLITIALLLAALASLTYAVVRPFLVSIGWAVFVSYVAWPLHAWSQRRFEGRKTLSALVTTALLGSVVLAPLIWLAVLLQGEVSELIRSLPDWLEQKPRLPDFVSHIPYFGNELQAVVDQFEDLHGLLKRHAPEWVRRLGSPVLGIMTTLVQNAAVLFMTLFTLFFLFRDGLQLATDVRRVFTRVLGERLKGYFATIEATVKAVLYGIVLTALAQGFLAGLGYWIVGVKAPIVLGIATTLIAMIPFGTPFAWGSVSIWLLLQGETWAGVSLALWGTLVISWIDNIIRPLVISSATHIPFVLVMFGVLGGLASFGFIGLVLGPVILAMALAVWREWLQQVREAGLRGEDGSGTGPGERR”, the protein production result is “failed”.
As for “MEYDYLVIAGYFALMVAISLLFKKMASNSTSDYFRGGGKMLWWMVGATAFMTQFSAWTFTGAAGKAFNDGFAVLAVFVGNMVAYVFAYFYFARRFRQMRVDTPTEGVKRRFGNTNEQFFTWVIIPLSVINAGVWLNGLGVFASAVFNADIVTTIWVTGLAVLAISLLSGAWGVVASDFIQTLVVAVISIACAAVALYVVGGPGEIVENFPGGFIMGPDMNYPLLLVCTFIFFVVKQLQSINNMQESYRFLNAKDSKNASKAALMALVMMLFGAVIWFIPPWASAILYPDAATQYSSLGAKASDAVYLVFARETMPLGTVGLLMAGLFAATMSSMDSALNRNSGIFVRSFYSNIVRKGQASDKELLRAGQIACLVNGILVIMMAQFFNSLKHLSLFDLMMQVATLLQSPILVPLFLGIIIRRTPKWAPWATVVVGMFVSWSVVKIFTPEFVGSWFGMDELTRREAGEMRTMITIAAHLVFTAGFFCLSTLFYKEETDTHKETTAEFFKDVDTECVAEEGQDIVDRMQRAKLGTLVIYMAAGLTLMVLIPNPLWGRLLFLACAASVFAVGYGLKKSAKLDTQLSKVAATTTQ”, the protein production entry is listed as “failed”.
With “MSPAAECRRQLSLDSSEAIGLQPLMQRASNTAGVFVMIDTQLEQQLQGFSALQSLFEADFDVRRLFTAEDALEAGEYGRLTVEALRNDPAAGQLFEERWVLPELNLSSLLQLPEGSFGRVYAEMLVGNGFDPDYVIQIAPVEGDDDLSYFKRLWRTTHDFHHIATGLGTDPRGEVALQAFLMGQLPIPFSVVVVSMGLLRTSVAQPDRIPALVDAISDAFRRGRHSPQLLLAQRWDHFWALPVAEVRQQLQIADLEHHHHHH”, the protein production result was “failed”.
